Assay results from article doi:10.1101/2025.10.29.685445 (bioRxiv, 2025).

Key:
[1] = molecular target: T1, HCoV-HKU1 RBD (residues 310-606 of isolate N5), Fc- and His-tagged (Human coronavirus HKU1, isolate N5, UniProt Q0ZME7); assay: SPR; settings: both partners purified
T1 construct: also called HCoV-HKU1 S1-CTD; not shown: Fc-tag, C-terminal, kept; 8X HisTag, C-terminal, kept

[2] = molecular target: T2, HCoV-HKU1 RBD (residues 310-606 of isolate N5), as used in BLI (Human coronavirus HKU1, isolate N5, UniProt Q0ZME7); assay: BLI; settings: both partners purified
T2 construct: source: FreeStyle 293-F, transfected (PEI), purified (Protein A, Superdex 200)
T2 sequence (Q0ZME7 310-606): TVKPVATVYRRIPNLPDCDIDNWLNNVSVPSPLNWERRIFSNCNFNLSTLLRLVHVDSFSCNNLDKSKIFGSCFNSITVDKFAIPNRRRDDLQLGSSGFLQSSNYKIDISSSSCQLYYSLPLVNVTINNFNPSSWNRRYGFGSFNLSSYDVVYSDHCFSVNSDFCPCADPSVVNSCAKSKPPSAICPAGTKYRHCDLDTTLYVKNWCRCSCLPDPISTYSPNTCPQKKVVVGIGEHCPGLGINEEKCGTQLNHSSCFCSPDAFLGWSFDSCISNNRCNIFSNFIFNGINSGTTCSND

T1 sequence (Q0ZME7 310-606): as above

Row | Binder | Kd [1] [nM] | Kd [2] [nM] | koff [2] [s⁻¹] | kon [2] [M⁻¹ s⁻¹]
1 | H501-008 Fab (Fab, V domains shown, also called H501–08 Fab) VH: QVQLVQSGGGVVQPGRSLRLSCAVSGFTLDRYAMHWVRQAPGKALEWVALMSADGREQYYAESVKGRFTFSRDSSKNTLYLQMHNLRTDDSSVYFCAREGPMYYDAWSGRSYYNNYALDVWGRGTTVAVSS VL: QSVLTQPPSVSAAPGQTVTISCSGSSSNIGDNYVSWYQQVPGTAPRLLVYDNNRRPLGIPDRFSGSKSGTSATLAIAGLQTGDEADYYCGTWDSSLSAGVFGGGTKLTVV | 0.161 |  |  | 
2 | H501-008 IgG (antibody, V domains shown, also called H501–08; mAb H501–008; copies: 2 + 2) VH: QVQLVQSGGGVVQPGRSLRLSCAVSGFTLDRYAMHWVRQAPGKALEWVALMSADGREQYYAESVKGRFTFSRDSSKNTLYLQMHNLRTDDSSVYFCAREGPMYYDAWSGRSYYNNYALDVWGRGTTVAVSS VL: QSVLTQPPSVSAAPGQTVTISCSGSSSNIGDNYVSWYQQVPGTAPRLLVYDNNRRPLGIPDRFSGSKSGTSATLAIAGLQTGDEADYYCGTWDSSLSAGVFGGGTKLTVV |  | 0.937 | 0.000315 | 336000
3 | H501-022 IgG (antibody, V domains shown, also called mAb H501–022; H-022; copies: 2 + 2) VH: QGTLKESGPMLVKPTQTLTLTCNFSGFSLSTSGVGVGWIRQPPGKALECLALIYWNDDQRYSPSLKTRLTITKDTSKNQVVLTMTNMDPVDTATYYCVYSMSRPVAGGVIDHWGQGTLVTVSS VL: DIQLTQSPSSLSASEGDRVTITCWASQNIRGYLNWYQQKPGKAPKLLIYATSTLESGVPSRFSGSGSVTDYTLTISSLQPEDFATYSCQQSYSSPPTFGGGTKVDIK |  | 2.01 | 0.000555 | 276000
4 | H501-018 IgG (antibody, V domains shown, also called mAb H501–018; H-018; copies: 2 + 2) VH: QVQLQESGPGLVKPSETLSLTCSVSGGSISNFYWSWIRQPPGKGLEWIGYIYYTGSSEYNPSLKSRVILSVDTSKNHFSLKLSSVTAADTAIYYCARGTWSRRLEVDLWGQGTLVTVSS VL: QSVLTQPPSASGTPGQRVTISCSGSSSNIGSNYVYWYQQLPGTAPKLLIYRSIQRPSGVPDRFSGSKSGTSASLAISGLRSEDEADYYCATWDDSLNSWVFAGGTKLTVL |  | 0.37 | 0.000105 | 283000
